# Experimental data taken from paper PMC12846656.
# Experiments:
# [1] = tested on: WT Np (SARS-CoV-2 (ancestral, WA-1/2020 isolate)); assay: fluorescence anisotropy salt titration
# [2] = tested on: HIV-1 Gag WT (HIV-1); assay: fluorescence anisotropy salt titration
Substance,Kd [1],Kd [2]
HIV-1 TARpolyA,260 µM,–
HIV-1 WT Psi,38 µM,–
SL1-4,260 µM,120000 µM
SL1-5,36 µM,21000 µM
SL5,500 µM,140 µM
